One test addresses PACAP27 (human). The experiment in a line: cell-based or functional assay.
For another test, the target named is PACAP38 (human). The experiment in a line: cell-based or functional assay.

Experimental findings from patent US20200131256A1 are described below.

Sequence of PACAP27 (human) (peptide, as listed by the source): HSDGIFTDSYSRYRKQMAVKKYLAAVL
Sequence of PACAP38 (human) (peptide, as listed by the source): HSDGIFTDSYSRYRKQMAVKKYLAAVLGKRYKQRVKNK

On to Control IgG4 antibody, for which, in the test with PACAP27 (human), the Percentage Tryptase Release upon addition of PACAP27 (1 uM), human mast cells, negative control antibody is 110% and the Percentage Tryptase Release upon addition of PACAP27 (%), negative control antibody dose 153 uM is 94.8%. Also, in the test with PACAP38 (human), the Percentage Tryptase Release upon addition of PACAP38 (1 uM), human mast cells, negative control antibody came out at 104% and the Percentage Tryptase Release upon addition of PACAP38 (%), negative control antibody dose 153 uM was determined as 79.6%.
